Assay [1] has as its target T1, CD137 on the surface of cells (activated human T cells; engineered CHO cells) (human, UniProt Q07011 24-255).
T1 construct: whole, on cells; also called human CD137; cell surface expressed CD137
Nature of the assay: flow cytometry on activated pan T cells gated CD8+ (donor D43867), anti-hFc APC MFI. The method, then:
(§1) Three antibodies were selected for further study. For such evaluations, purified pan T-cells (see above) were stimulated with anti-CD3/CD28 beads (cells:beads=1:1) for 72 hours in the presence of IL-2 (100 U/mL). 100 μL of activated T cells (1.0×10⁶ cells/mL) and 100 μL of serially diluted (5- or 10-fold dilutions) test article (antibody or bispecific diabody) was added to each well of microtiter assay plate(s), mixed and incubated at RT for 45 min. The cells were washed with FACS Buffer and secondary antibody (anti-human-Fc region-APC) was then added to each well; mixed and incubated at RT for 30 min. Cells were then washed FACS Buffer and T cell surface marker antibodies (anti-CD4 labeled with V510, and anti-CD8 labeled with FITC) were then added to each well; mixed and incubated at RT for 30 min. Cells were washed and resuspended in 100 μL FACS Buffer and analyzed by flow cytometry (BD LSR Fortessa or FACSCanto 11) for cell event collection. Data analysis were performed via FloJo v10.

The target of assay [2] is T1, CD137 on the surface of cells …. Nature of the assay: flow cytometry on activated pan T cells gated CD4+ (donor D43867), anti-hFc APC MFI. As to the method:
as §1
Background: In flow cytometry, cells or beads pass a laser one at a time.

Assay [3] addresses T2, extracellular portion of human CD137 fused to a histidine-containing peptide (human, UniProt Q07011 24-186).
T2 construct: extracellular domain; also called huCD137; His-tagged soluble human CD137
Nature of the assay: SPR (BIACORE); antibody captured on anti-human Fc; huCD137 25 and 100 nM; 1:1 Langmuir. The method, then:
(§2) Thus, an extracellular portion of human CD137 fused to a histidine-containing peptide (“huCD137”) was passed over a surface coated with immobilized antibody. Briefly, each test molecule was captured onto an F(ab)₂ goat-anti-human Fc-coated surface and then incubated in the presence of different concentrations (25 nM and 100 nM) of huCD137. The kinetics of binding were determined via BIACORE® analysis binding (normalized 1:1 Langmuir binding model).
A general note: In SPR one partner is held on a chip, and binding of the other changes the refractive index at the surface.

Assay [4] has as its target T2, extracellular portion of human CD137 …. Nature of the assay: SPR (BIACORE), against chCD137 MAB-4. As to the method: as §2
The target is the same in assay [5]. Nature of the assay: SPR (BIACORE), against chCD137 MAB-3. As to the method: as §2
The target is the same in assay [6]. Nature of the assay: Attana Cell A200 QCM; antibody captured by anti-human IgG Fc; soluble human CD137-His; grade relative to (1B.3); row with VL12.

T1 sequence (Q07011 24-255, change not shown): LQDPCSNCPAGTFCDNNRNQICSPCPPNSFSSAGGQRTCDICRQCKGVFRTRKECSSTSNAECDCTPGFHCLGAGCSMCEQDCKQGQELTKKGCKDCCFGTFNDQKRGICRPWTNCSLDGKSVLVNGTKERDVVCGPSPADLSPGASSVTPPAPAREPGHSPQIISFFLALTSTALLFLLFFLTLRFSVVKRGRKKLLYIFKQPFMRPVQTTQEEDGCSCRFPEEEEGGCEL

B1: hCD137 MAB-3 (1E.15) (antibody, V domains shown)
VH: QVQLVQSGAEVKKPGASVKVSCKASGYTFTSYWINWVRQAPGQGLEWIGNIYPSDSYTNYNQKFKDKATITADKSTSTAYMELSSLRSEDTAVYYCTRDYGSAYSMSTWGQGTTVTVSS
VL: DIQMTQSPSSLSASVGDRVTITCQASQDISNYLNWYQQKPDKTVKLLIYYTGRARSGVPSRFSGSGSGTDFTFTISSLQPEDIATYFCQQGDTLPYTFGQGTKLEIK
As to B1, the EC50 (read off the curve) – broadly, the midpoint of the concentration-response curve – in assay [1] is about 5 ng/mL; in assay [2], about 6 ng/mL.

B2: hCD137 MAB-4 (1.1) (antibody, V domains shown)
VH: QVQLVQSGAEVKKPGASVKVSCKASGYTFTSYWINWVRQAPGQGLEWMGNIYPSDSYTNYDQKFKDRVTMTRDTSTSTVYMELSSLRSEDTAVYYCTKSGEYGKIGYYAMDYWGQGTTVTVSS
VL: DIQMTQSPSSLSASVGDRVTITCRASQDISNYLNWYQQKPDKTVKLLIYYTSRLHSGVPSRFSGSGSGTDYTLTISSLQPEDIATYFCQQGNTLPYTFGQGTKLEIK
notes: also called chCD137 MAB-4 (1.1)
For B2, in assay [3], the Kd (usually the equilibrium constant for the complex coming apart) came to 0.0162 µM; the koff (usually the first-order rate constant of dissociation) amounted to 0.0021 s⁻¹; the kon (in general, the second-order rate constant of association) stood at 130000 M⁻¹ s⁻¹. For the same molecule, the “fold decrease in binding affinity relative to the murine antibodies” value in assay [4] is about 2 fold.

B3: hCD137 MAB-3 (1.2) (antibody, V domains shown)
VH: QVQLVQSGAEVKKPGASVKVSCKASGYTFTSYWINWVKQAPGQGLEWIGNIYPSDSYTNYNQKFKDKATITADKSTSTAYMELSSLRSEDTAVYYCTRDYGSSYSFDYWGQGTTVTVSS
VL: DIQMTQSPSSLSASVGDRVTITCRPSQDISNYLNWYQQKPGGTVKLLIYYTSRLRSGVPSRFSGSGSGTDFTFTISSLQPEDIATYFCQQGDTLPYTFGQGTKLEIK
notes: also called chCD137 MAB-3 (1.2)
Consider B3, for which, in assay [3], the Kd came out at 0.049 µM, the koff was found to be 0.03 s⁻¹ and the kon worked out at 610000 M⁻¹ s⁻¹. In assay [5], the “fold decrease in binding affinity relative to the murine antibodies” value is about 2 fold.

B4: hCD137 MAB-3 (1.3) (antibody, V domains shown)
VH: QVQLVQSGAEVKKPGASVKVSCKASGYTFTSYWINWVKQAPGQGLEWIGNIYPSDSYTNYNQKFKDKATITADKSTSTAYMELSSLRSEDTAVYYCTRDYGSSYSFDYWGQGTTVTVSS
VL: DIQMTQSPSSLSASVGDRVTITCRPSQDISNYLNWYQQKPDKTVKLLIYYTSRLRSGVPSRFSGSGSGTDFTFTISSLQPEDIATYFCQQGDTLPYTFGQGTKLEIK
notes: also called chCD137 MAB-3 (1.3)
On to B4, for which, in assay [3], the Kd worked out at 0.05 µM, the off-rate constant (koff) amounted to 0.033 s⁻¹ and the kon is 660000 M⁻¹ s⁻¹. Besides, in assay [5], the “fold decrease in binding affinity relative to the murine antibodies” value is about 2 fold.

B5: hCD137 MAB-4 (1.2) (antibody, V domains shown)
VH: QVQLVQSGAEVKKPGASVKVSCKASGYTFTSYWINWVRQAPGQGLEWMGNIYPSDSYTNYDQKFKDRVTMTRDTSTSTVYMELSSLRSEDTAVYYCTKSGEYGKIGYYAMDYWGQGTTVTVSS
VL: DIQMTQSPSSLSASVGDRVTITCRASQDISNYLNWYQQKPDKTVKLLIYYTSRLHSGVPSRFSGSGSGTDYTLTISSLQPEDIATYYCQQGNTLPYTFGQGTKLEIK
notes: also called chCD137 MAB-4 (1.2)
In the case of B5, in assay [3], binding was put at a Kd of 0.0136 µM, the koff was 0.0019 s⁻¹ and the kon is 140000 M⁻¹ s⁻¹. In assay [4], the “fold decrease in binding affinity relative to the murine antibodies” value is about 2 fold.

B6: hCD137 MAB-3 VH1B with VL12 (I48A/S52T) (antibody, V domains shown)
VH: QVQLVQSGAEVKKPGASVKVSCKASGYTFTSYWINWVKQAPGQGLEWIGNIYPSDSYTNYNQKFKDKATITADKSTSTAYMELSSLRSEDTAVYYCTRDYGSAYSMSTWGQGTTVTVSS
VL: DIQMTQSPSSLSASVGDRVTITCRPSQDISNYLNWYQQKPDKTVKLLAYYTTRLRSGVPSRFSGSGSGTDFTFTISSLQPEDIATYFCQQGDTLPYTFGQGTKLEIK
As to B6, the binding result in assay [6] is “binds”.

B7: hCD137 MAB-3 (1G.15) (antibody, V domains shown)
VH: QVQLVQSGAEVKKPGASVKVSCKASGYTFTSYWINWVRQAPGQGLEWAGNIYPSDSYTNYNQKFKDKATITADKSTSTAYMELSSLRSEDTAVYYCTRDYGSAYSMSTWGQGTTVTVSS
VL: DIQMTQSPSSLSASVGDRVTITCQASQDISNYLNWYQQKPDKTVKLLIYYTGRARSGVPSRFSGSGSGTDFTFTISSLQPEDIATYFCQQGDTLPYTFGQGTKLEIK
As to B7, the “EC50 (read off the curve)” value in assay [1] was about 8 ng/mL; in assay [2], about 10 ng/mL.
